Test results taken from paper PMC3074137.

Assays:
eIF4A (human) = eIF4A (human) (UniProt P60842); test: ITC
[1] = biological target: eIF4G-MC (83.5 kDa fragment of human eIF4GI, residues 712-1451) (human) (UniProt Q04637); test: ITC
eIF4G-MC (F978A) (human) = eIF4G-MC (F978A) (human) (UniProt Q04637); test: ITC
[2] = biological target: eIF4G-MC (83.5 kDa fragment of human eIF4GI, residues 712-1451) (human) (UniProt Q04637); test: SEC
[3] = biological target: eIF4G-MC (83.5 kDa fragment of human eIF4GI, residues 712-1451) (human) (UniProt Q04637); test: SAXS
His6-eIF4G-MC (human) = His6-eIF4G-MC (human) (UniProt Q04637); test: SPR
Sequence of His6-eIF4G-MC (human) (Q04637 711-1450): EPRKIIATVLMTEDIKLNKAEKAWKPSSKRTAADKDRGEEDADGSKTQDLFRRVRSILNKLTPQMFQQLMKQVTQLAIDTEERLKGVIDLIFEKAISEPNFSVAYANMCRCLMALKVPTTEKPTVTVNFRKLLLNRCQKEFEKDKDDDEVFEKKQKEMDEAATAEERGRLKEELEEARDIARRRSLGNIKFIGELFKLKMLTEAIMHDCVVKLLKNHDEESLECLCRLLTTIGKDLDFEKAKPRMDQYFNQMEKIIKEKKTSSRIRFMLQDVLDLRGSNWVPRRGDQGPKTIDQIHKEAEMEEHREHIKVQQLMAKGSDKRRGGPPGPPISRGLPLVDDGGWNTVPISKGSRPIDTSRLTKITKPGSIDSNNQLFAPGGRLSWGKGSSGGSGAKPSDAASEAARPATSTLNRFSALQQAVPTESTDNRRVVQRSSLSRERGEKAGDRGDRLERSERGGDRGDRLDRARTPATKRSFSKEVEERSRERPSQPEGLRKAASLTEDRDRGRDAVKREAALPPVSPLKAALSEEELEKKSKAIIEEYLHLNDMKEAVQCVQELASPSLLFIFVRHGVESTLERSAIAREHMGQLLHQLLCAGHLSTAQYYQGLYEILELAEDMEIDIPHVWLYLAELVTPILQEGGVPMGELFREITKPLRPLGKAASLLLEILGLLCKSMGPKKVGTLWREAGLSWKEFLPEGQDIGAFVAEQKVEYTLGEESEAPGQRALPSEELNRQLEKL

eIF4B = eIF4B (human, UniProt P23588 1-611); test: pull-down
Sequence of eIF4B (P23588 whole entry): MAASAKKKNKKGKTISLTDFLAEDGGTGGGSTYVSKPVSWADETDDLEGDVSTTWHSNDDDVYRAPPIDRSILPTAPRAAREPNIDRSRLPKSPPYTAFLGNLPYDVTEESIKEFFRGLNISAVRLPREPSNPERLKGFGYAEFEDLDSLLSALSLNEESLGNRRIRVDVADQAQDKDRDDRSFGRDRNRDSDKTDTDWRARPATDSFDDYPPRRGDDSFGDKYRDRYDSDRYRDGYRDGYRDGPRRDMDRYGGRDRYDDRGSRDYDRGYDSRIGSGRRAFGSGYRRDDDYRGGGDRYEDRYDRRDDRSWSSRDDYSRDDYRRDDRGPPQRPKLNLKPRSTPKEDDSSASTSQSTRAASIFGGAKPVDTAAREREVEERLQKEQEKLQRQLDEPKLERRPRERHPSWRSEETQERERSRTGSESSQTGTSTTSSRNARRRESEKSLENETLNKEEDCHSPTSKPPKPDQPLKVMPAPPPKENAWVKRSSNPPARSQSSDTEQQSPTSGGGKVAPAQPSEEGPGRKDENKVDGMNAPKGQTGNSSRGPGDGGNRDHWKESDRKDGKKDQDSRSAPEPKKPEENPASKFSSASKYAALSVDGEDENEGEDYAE

eIF4A;eIF4BΔC = eIF4A;eIF4BΔC (human;human, UniProt P60842;P23588 1-406;1-431, |); test: pull-down
eIF4A;eIF4B = eIF4A;eIF4B (human;human, UniProt P60842;P23588 1-406;1-611, |); test: pull-down

Sequence of eIF4G-MC (83.5 kDa fragment of human eIF4GI, residues 712-1451) (human) (Q04637 711-1450): as the sequence (Q04637 711-1450) above
Sequence of eIF4G-MC (83.5 kDa fragment of human eIF4GI, residues 712-1451) (Q04637 711-1450): as above
Sequence of eIF4G-MC (F978A) (human) (Q04637 711-1450 F977A): as the sequence (Q04637 711-1450) above, with F267A counted along it

## eIF4G-MC (83.5 kDa fragment of human eIF4GI, residues 712-1451) (from UniProt Q04637-8 712-1451) (domain or fragment)
eIF4A (human)
  KD high-affinity site: 42 nM
  KD low-affinity site: 1600 nM

## eIF4A (from UniProt P60842 1-406) (enzyme)
[1]
  KD high-affinity site: 50 nM
  KD low-affinity site: 775 nM
eIF4G-MC (F978A) (human)
  Kd: 417 nM
  stoichiometry N (eIF4A per eIF4G-MC (F978A)): 1
[2]
  stoichiometry N (eIF4A per eIF4G-MC): 1
[3]
  stoichiometry N (eIF4A per eIF4G-MC): 1
His6-eIF4G-MC (human)
  KD high-affinity site: 67 nM

## UUUUUUUUUUUUUUUUUUUUUUUUUUUUUU (ssRNA) [pU30-biotin]
eIF4B
  binding result: binds
eIF4A;eIF4BΔC
  binding result: binds
eIF4A;eIF4B
  binding result: binds
